According to patent publication US20240317877A1 (IUCF HYU INDUSTRY UNIVERSITY COOPERATION FOUNDATION HANYANG …, published 2024):
Changes are numbered by the printed parent chain. Names and notes keep the numbering of the source.

B1: anti-human transferrin receptor antibody 128.1, wild type (WT) (antibody, V domains shown)
VH: EVQLQQSGPELVKPGASMKISCKASGYSFTGYTMNWVKQSHGENLEWIGRINPHNGGTDYNQKFKDKAPLTVDKSSNTAYMELLSLTSEDSAVYYCARGYYYYSLDYWGQGTSVTVSS
VL: QIVLTQSPAIMSASPGEKVTMTCSASSSIDYIHWYQQKSGTSPKRWIYDTSKLASGVPARFSGSGSGTSYSLTISSMEPEDAATYYCHQRNSYPWTFGGGTRLEIR
notes: The ELISA detects with anti-human IgG-HRP; also called anti-hTfR antibody; anti-TfR(WT)
B2: anti-human transferrin receptor antibody 128.1 with VH Y27H mutation (antibody, V domains shown)
VH: B1 VH with Y27H
VL: B1 VL
notes: Same vector format as WT (human IgG constant region with myc-His tag, human kappa CL); also called anti-TfR(VH Y27H)
B3: anti-human transferrin receptor antibody 128.1 with VH Y98A mutation (antibody, V domains shown)
VH: B1 VH with Y102A
VL: B1 VL
B4: anti-human transferrin receptor antibody 128.1 with VL Y94A mutation (antibody, V domains shown)
VH: B1 VH
VL: B1 VL with Y93A
B5: anti-human transferrin receptor antibody 128.1 with VH Y99H mutation (antibody, V domains shown)
VH: B1 VH with Y103H
VL: B1 VL

Assays:
[1] = biological target: T1, human transferrin receptor (human, UniProt P02786 89-760, limits assumed); assay: ELISA, plate-coated human TfR, anti-human IgG-HRP detection; WT run beside VH Y27H
T1 construct: also called hTfR; human TfR
T1 sequence (P02786 89-760 limits assumed): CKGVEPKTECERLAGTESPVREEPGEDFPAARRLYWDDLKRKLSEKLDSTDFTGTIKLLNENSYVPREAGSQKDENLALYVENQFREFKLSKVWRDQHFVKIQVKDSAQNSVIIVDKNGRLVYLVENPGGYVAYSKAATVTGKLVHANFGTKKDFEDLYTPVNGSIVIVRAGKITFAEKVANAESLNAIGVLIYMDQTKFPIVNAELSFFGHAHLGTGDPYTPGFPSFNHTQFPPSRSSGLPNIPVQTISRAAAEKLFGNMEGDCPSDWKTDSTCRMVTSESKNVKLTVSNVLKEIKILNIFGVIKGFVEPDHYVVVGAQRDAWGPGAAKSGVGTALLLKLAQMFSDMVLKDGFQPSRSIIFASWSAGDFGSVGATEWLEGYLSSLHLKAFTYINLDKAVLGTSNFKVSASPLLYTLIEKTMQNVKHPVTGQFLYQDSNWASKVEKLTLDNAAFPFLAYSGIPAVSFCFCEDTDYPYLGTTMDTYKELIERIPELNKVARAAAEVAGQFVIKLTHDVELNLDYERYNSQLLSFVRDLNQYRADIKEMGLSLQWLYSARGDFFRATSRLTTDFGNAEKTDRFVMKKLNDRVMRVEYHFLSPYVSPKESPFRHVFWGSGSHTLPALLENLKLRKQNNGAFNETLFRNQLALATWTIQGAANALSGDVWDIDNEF
Protocol: (§1) Human TfR (2.5 μg/ml) was coated on a 96-well half area plate (Corning) overnight at 4° C. Antibodies were prepared by diluting 5-fold from 50 nM to 0.64 pM. PBS (pH 7.5; same as blocking buffer) containing 5% skim milk was used for dilution. The plate was washed three times with PBS at pH 7.5, and then blocked with blocking buffer at room temperature for 2 hours and washed several more times. Various concentrations of anti-TfR antibodies were placed in the wells, and binding was induced for 2 hours. Unbound antibodies were then washed twice with PBST and twice with PBS.
(§2) Horseradish peroxidase (HRP)-conjugated anti-human IgG antibody (AB frontier) was added and incubated for 2 hours. After the antibody washing step, 50 μl of TMB solution was added and incubated at 37° C. for 20 minutes. Finally, an equal volume of stop solution was added and mixed, and then the absorbance was measured at 450 nm using an EMax Microplate Reader (Molecular Devices). Steps other than TMB incubation were performed at room temperature.

[2] = biological target: T1, human transferrin receptor; assay: ELISA, plate-coated human TfR, anti-human IgG-HRP detection; WT run beside VH Y98A
Protocol: as §1, §2

[3] = biological target: T1, human transferrin receptor; assay: ELISA, plate-coated human TfR, anti-human IgG-HRP detection; WT run beside VH Y99H
Protocol: as §1, §2

[4] = biological target: T1, human transferrin receptor; assay: ELISA, plate-coated human TfR, anti-human IgG-HRP detection; WT run beside VL Y94A
Protocol: as §1, §2

[5] = biological target: T1, human transferrin receptor; assay: ELISA, plate-coated human TfR; mutant against WT
Protocol: as §1, §2

[6] = biological target: T1, human transferrin receptor; assay: ELISA, plate-coated human TfR, anti-human IgG-HRP detection
Protocol: as §1, §2

Row | Binder | EC50 [1] [nM] | EC50 [2] [nM] | EC50 [3] [nM] | EC50 [4] [nM] | Fold-increase of EC50 (Reduced rate of binding affinity) [5] [fold] | EC50 [6] [nM]
1 | B1 | 0.057 | 0.53 | 0.048 | 0.44 |  | 
2 | B2 |  |  |  |  | 35 | 1.98
3 | B3 |  |  |  |  | > 100 | 
4 | B4 |  |  |  |  | 1.2 | 0.52
5 | B5 |  |  |  |  | 9.2 | 0.44
